PMC8582233 (2021)

Target: Recombinant SARS-CoV-2 S1 (SARS-CoV-2)
Test: MST

B1: Recombinant L-SIGN/CD299 (receptor)
chain: QVSKVPSSLSQEQSEQDAIYQNLTQLKAAVGELSEKSKLQEIYQELTQLKAAVGELPEKSKLQEIYQELTRLKAAVGELPEKSKLQEIYQELTRLKAAVGELPEKSKLQEIYQELTRLKAAVGELPEKSKLQEIYQELTELKAAVGELPEKSKLQEIYQELTQLKAAVGELPDQSKQQQIYQELTDLKTAFERLCRHCPKDWTFFQGNCYFMSNSQRNWHDSVTACQEVRAQLVVIKTAEEQNFLQLQTSRSNRFSWMGLSDLNQEGTWQWVDGSPLSPSFQRYWNSGEPNNSGNEDCAEFSGSGWNDNRCDVDNYWICKKPAACFRDE
For B1, the Kd was 3.27 nM.

B2: Recombinant DC-SIGN/CD209 (receptor)
chain: QVSKVPSSISQEQSRQDAIYQNLTQLKAAVGELSEKSKLQEIYQELTQLKAAVGELPEKSKLQEIYQELTRLKAAVGELPEKSKLQEIYQELTWLKAAVGELPEKSKMQEIYQELTRLKAAVGELPEKSKQQEIYQELTRLKAAVGELPEKSKQQEIYQELTRLKAAVGELPEKSKQQEIYQELTQLKAAVERLCHPCPWEWTFFQGNCYFMSNSQRNWHDSITACKEVGAQLVVIKSAEEQNFLQLQSSRSNRFTWMGLSDLNQEGTWQWVDGSPLLPSFKQYWNRGEPNNVGEEDCAEFSGNGWNDDKCNLAKFWICKKSAASCSRDEEQFLSPAPATPNPPPA
With B2 the Kd was 3.76 nM.
